Assay [1] concerns the target FLAG-sBST2-GST (human) (UniProt Q10589). Put plainly: ELISA, plate coated with FLAG-sBST2-GST, control IgG1 (κ). On the technique in general: ELISA stands for enzyme-linked immunosorbent assay.
The target is the same in assay [2]. Put plainly: ELISA, plate coated with FLAG-sBST2-GST, control IgG4 (κ).

Chain of FLAG-sBST2-GST (human) (Q10589 other isoform, or with tags, fused parts or gaps): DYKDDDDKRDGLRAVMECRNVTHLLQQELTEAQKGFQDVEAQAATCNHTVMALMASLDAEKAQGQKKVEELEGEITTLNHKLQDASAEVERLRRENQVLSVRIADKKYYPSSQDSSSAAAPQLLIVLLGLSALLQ

Control IgG1 (κ) (antibody) gave an A450 nm/A570 nm in assay [1] of 0.014 absorbance.
Take Control IgG4 (κ) (antibody): the A450 nm/A570 nm in assay [2] worked out at 0.013 absorbance.

Values taken from patent US20040136982A1.
